This note sets out measurements from patent US20180125934A1 (Stanford University, published 2018).

B1: PD-1 variant polypeptide, clone S5.1 (receptor)
chain: NPPTFSPALLVVTEGDNATFTCSFSNTSESFVLNWYRMSPSNQTDKLAAFPEDRGQLGQDSRFRVTQLPNGRDFHMSVVRARRSDSGTYLCSAIVLAPKIQIKESLRVELRVTERRAE
B2: PD-1 variant polypeptide, clone S5.4 (receptor)
chain: NPPTFSPALLVVTEGDNATFTCSFSNTSESFVLNWYRMSPSNQTDKLAAFPEDRGQPGRDSRFRVTQLPNGRDFRMSVVRARRSDSGTYLCSAILLAPKIQIKESLGAELRVTEKGAE
B3: PD-1 variant polypeptide, clone S5.1f (receptor)
chain: NPPTFSPALLVVTEGDNATFTCSFSNTSESFVLNWYRVSPSNQTDKLAAFPEDRSRPGQDSRFRVTRLPNGRDFHMSVVGARRSDSGTYLCGAISLAPKVQIKESLRAELRVTERRAE
B4: PD-1 variant polypeptide, clone S5.2q (receptor)
chain: SPPTLSPALLVVTEGDNVTFTCSFSNTSESFVLNWYRMSPSNQTDKLAAFPEDRGQPGRDSRFRVTQLPNGRDFHMSVVRARRNDSGTYLCGAISLAPKVQIKESLRAELRVTERRAE
B5: PD-1 variant polypeptide, clone S5.1p (receptor)
chain: DPPTFSPALLVVTEGDNATFTCSFSNTSESFVLNWYRMSPSNQTDKLAAFPEDRSQPGQDSRFRVTQLPNGRDFHMSVVRARRNDSGTYLCGAILLAPRIQIRESLGAELRVTEKGAE
B6: PD-1 variant polypeptide, clone S5.1g (receptor)
chain: NPPTFSPALLVVTEGDNATFTCSFSNASESFVLNWYRMSPSDQTDKLAAFPEDRGQLGQDSRFRVTQLPNGRDFHMSVVRARRNDSGTYLCGAISLAPKIQIKESLRAELRVTERRAE
B7: PD-1 variant polypeptide, clones S5.1j, S5.1o (receptor)
chain: NPPTFSPALLVVTEGDNATFTCSFSNTSESFVLNWYRMSPSNQTDKLAAFPEDRSQPGQDSRFRVTQLPNGRDFHMSVVRARRNDSGTYLCGAISLAPKVQIKESLRVELRVTERRAE
B8: PD-1 variant polypeptide, clone S5.2i (receptor)
chain: NPPTFSPALLVVAEGDNATFTCSFSNTSESFVLNWYRMSPSNQTDKLAAFPEDRSQPGQDRRFRVTQLPSGRDFHMSVVRARRNDSGTYLCGAIFLAPRIQIKESLRAELRVTERRAE
B9: PD-1 variant polypeptide, clone S5.1i (receptor)
chain: NPPTFSPALLVVTEGDNATFTCSFSNTSESFVLNWYRMSPSNQTDKLAAFPEDRSQPGQDSRFRVTQLPNGRDFRMSVVRARRSDSGTYLCSAISLAPKVQIKESLRAELRVTERRAE
B10: PD-1 variant polypeptide, clone S5.2d (receptor)
chain: NPPTFSPALLVVTEGDNATFTCSFSNTSESFVLNWYRMSPSDQTDKLAAFPEDRSRPGQDSRFRVTQLPNGRDFHMSVVGARRNDSGTYLCGAISLAPKVQIRESLRAELRVTERRAE
B11: PD-1 variant polypeptide, clone S5.1q (receptor)
chain: NPPTFSPALLVVTEGDNATFTCSFSNTSESFVLNWYRMSPSNQTDKLAAFPEDRSQLGQDSRFRVTQLPNGRDFHMSVVRARRNDSGTYLCGAISLAPKVQIRESLRVELRVTERRAE
B12: PD-1 variant polypeptide, clone S5.1e (receptor)
chain: NPPTFSPALLVVTEGDNATFTCSFSNTSESFVLNWYRMSPSNQTDKLAAFPEDRSQPGQDSRFRVTQLPNGRDFHMSVVRARRSDSGTYLCGAISLAPKVQIKESLRAELRVIERRAE
B13: PD-1 variant polypeptide, clone S5.2s (receptor)
chain: NPPTFSPALLVVTEGDNATFTCSFSNTSESFVLNWYRMSPSSQTDKLAAFPEDRSQPGQDSRFRVTQLPNGRDFHMSVVRARRSDSGTYLCGVISLAPKVQIKESLRAELRVIERRAE
B14: PD-1 variant polypeptide, clone S5.1k (receptor)
chain: DPPTFSPALLVVTEGDNATFTCSFSNTSESFVLNWYRMSPSNQTDKLAAFPEDRSQPGQDSRFRVTQLPNGRDFHMSVVRARRDDSGTYLCGAISLAPKIQIKESLRAELRVTERRAE
B15: PD-1 variant polypeptide, clone S5.1c (receptor)
chain: NPPTFSPALLVVTEGDNATFTCSFSNTSESFVLNWYRMSPSNQTDKLAAFPEDRGQPGQDSRFRVIQLPNGRDFHMSVVRARRNDSGTYLCGAISLAPKVQIKESLRAELRVTERRAE
B16: PD-1 variant polypeptide, clone S5.1n (receptor)
chain: NPPTFSPALLVVTEGDNATFTCSFSNTSESFVLNWYRMSPSNQTDKLAAFPEDRSQPGQDSRFRVTQLPNGRDFHMSVVRARGDDSGTYLCGAISLAPKVQIKESLRVELRVTERRAE
B17: PD-1 variant polypeptide, clone S6.12.9 (receptor)
chain: NPPTFSPALLVVTEGDNATFTCSFSNTSESFVLNWYRMSPSNQTDKLAAFPEDRGQLGQDSRFRVTQLPNGRDFHMSVVRARRSDSGTYLCSAIVLAPRIQIKESLRVELRVTERRAE
B18: PD-1 variant polypeptide, clone S6.12.6 (receptor, not shown: large carriers)
chain: NPPTFSPALLVVTEGDNATFTCSFSNTSESFVLNWYRISPSNQTDKLAAFPEDRGQLGQDSRFRVTQLPNGRDFHMSVVRARRSDSGTYLCSAILLAPRIQIRESLGVELRVTEKRAE
B19: PD-1 variant polypeptide, clone S6.8.3 (receptor)
chain: NPPTFSPALLVVTEGDNATFTCSFSNTSESFVLNWYRMSPSNQTDKLAAFPEDRGQLGQASRFRVTQLPNGRDFHMSVVRARRSDSGTYLCSAILLAPRIQIRESLRVELRVTERRAE
B20: PD-1 variant polypeptide, clone S5.7 (receptor)
chain: NPPTFSPALLVVTEGDNATFTCSFSNTSESFVLNWYRMSPSNQTDKLAAFPEDRGQLGQDSRFRVTQLPNGRDFHMSVVRARRSDSGTYLCSAILLAPKIQIKESLRVELRVTERRAE

The target of one assay is T1, human PD-L1-Fc chimeric protein (human, UniProt Q9NZQ7 19-238).
T1 construct: extracellular domain; Recombinant protein; also called soluble PD-L1-Fc; not shown: Fc region of human IgG1, fused at the C-terminus
T1 sequence (Q9NZQ7 19-238, change not shown): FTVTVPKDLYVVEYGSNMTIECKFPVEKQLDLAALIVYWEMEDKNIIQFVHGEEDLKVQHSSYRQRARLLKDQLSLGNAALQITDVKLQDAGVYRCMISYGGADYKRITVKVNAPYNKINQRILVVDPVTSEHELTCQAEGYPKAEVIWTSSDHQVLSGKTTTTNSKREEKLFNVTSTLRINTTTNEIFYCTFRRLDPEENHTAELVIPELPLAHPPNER
In words: flow cytometry of yeast-displayed clone with soluble PD-L1-Fc (S5.1 tested at 0.5 nM only, see paragraph 221). As for the experimental part: (§1) Binding was allowed to proceed for 3 hours at room temperature at which time yeast were pelleted, washed twice to remove unbound PD-L1-Fc, and stained with a fluorescently labeled secondary antibody to detect the Fc of bound PD-L1. Secondary labeling was performed for 30 minutes on ice, after which yeast were pelleted and washed as described. Yeast samples were then analyzed on a flow cytometer to quantify PD-L1-Fc binding.
(§2) FIG. 4 provides a graph of the FACS data.
For orientation: Flow cytometry measures light scatter and fluorescence of single cells or particles in a stream.
For B1, the binding result is given as “binds”.

Another assay concerns the target T1, human PD-L1-Fc chimeric protein. In words: flow cytometry of yeast-displayed clone with soluble PD-L1-Fc at 5 nM or 0.5 nM. Here is the method:
as §1, §2
For the molecule B2, the binding result is recorded as “binds”.

For another assay the target is unchanged. In words: yeast display, clone sequenced from the pool after five FACS sorts on PD-L1-Fc; measured as a pool, not singly. Here is the method: In these sorts, yeast were incubated at room temperature in phosphate-buffered saline with 1 mg/ml BSA (PBSA) and with the following nominal concentrations of PD-L1-Fc: for sort 1, 250 nM; sort 2, 20 nM; sort 3, 1 nM; sort 4, 0.1 nM; sort 5, 0.1 nM. PD-L1 Fc refers to a human PD-L1-Fc chimeric protein. This recombinant protein contains the extracellular domain of human PD-L1 fused to the Fc region of human IgG1 at the C-terminus. After incubation with PD-L1-Fc, yeast were pelleted, washed, and resuspended in PBSA with chicken anti-cMYC for 1 hour at 4° C. After primary antibody incubation, yeast were once again washed and secondary labeling was performed on ice for 30 minutes using PBSA with goat anti-chicken Alexa Fluor 555 and goat anti-human IgG Alexa Fluor 488. Each sort was conducted such that the 1-3% of clones with the highest PD-L1 binding/cMyc expression ration were selected, thereby enriching the library for clones with the highest affinity. In the first round, 1×10⁸ cells were screened, and in subsequent rounds a minimum of ten-fold the number of clones collected in the prior sort round were screened to ensure adequate sampling of diversity.
Samples were analyzed using a FACScalibur flow cytometer and data was analyzed using FlowJo software.
Turning to B3, the binding result is given as “binds”.
Same read-out and setting: for B4 the value was “binds”; for B5, “binds”.
For B6, the binding result is recorded as “binds”.
Consider B7, for which the binding result is “binds”.
On the same count and under the same terms, for B8 the value was “binds”; for B9, “binds”.
The same measure, in the same setting: with B10 the entry was “binds”.
Same read-out and setting: for B11 the value was “binds”; for B12, “binds”; for B13, “binds”.
Consider B14, for which the binding result is on record as “binds”.
Same read-out and setting: with B15 the entry was “binds”.
Still for that read-out and setting: for B16 the value was “binds”.

Another assay has the same target. In words: flow cytometry of yeast-displayed clone, FIG. 2 (0.5 nM PD-L1-Fc) and FIG. 3 (5 nM, also bound strongly). Here is the method: as §1, §2
Regarding B17, the binding result is “binds”.
Same read-out and setting: with B18 the entry was “binds”.
The same measure, in the same setting: for B19 the value was “binds”; for B20, “binds”.
